# B1: G88P3: 1395-bp derivative of the G88P2 promoter, SEQ ID NO: 60 (nucleic acid, listed as Homo sapiens)
# DNA: TCTAGATGTACCACTGACATCTGCTTTAAATCTTTTGCCCATTTCATTTTTACCCTCTAACCATTTCATTACTAAAACACAAAACAAACTCCGGAAAGGAGTTTGTTGATGAGAAAACACTGAAAGTACGATTTAAATTGAGGAATGGAGATTTTCTGTGGATAATTGTCTATGTTCCACTTTACCAAAGAAAAATGAATTTCAAGTAGTGCATAAAGTAATTCTCGTTAAAAAATGTGGGAATAAAGAGATCAGTCCTGGGTACTGGGAATATATTTATCTCACAGAAAAATCTTGCCCACAAAATGCATCAGACTGAGATGAAATACTCTAGGGTATATTAAATTTTATTCTAATATTGAAGGGAGGGAAAAAAAGGACGGAAAGAAAAATGAAACAGGATGAAAAATAAGGTGATTGGGAGAGAGAAAAGACAGAGAAACTTGTTAACGACAGGACTTTCTGAGCAAGATATTTTTCTTCCTTTTACAAGTTGGAAGCTATTGAATAATTCATGCCAAGCGTGGAAAGGCTGTCTTTTCCCTGGATGATGTATAACTAAGCAGGAGAGAGCTTCGAGTGGGTTCACCACATCAGCCACCACTCCTGCTTCTGAGCACAGGGTGCTCTCCTCTTGAGCTCAGCTTCTGCTTTTGCAGCCAAGCATTCTTGCTGCTGCTGCCTGCCTGCCCACCCGCCTGGGCTTGCAGCCCGCCACTTTACTTTCTCCAGCCCTGATACCAGCTGAGAAGTCTCCCTGCAGCTGCTAGTTCCTGCCCAGGACCATGTGTGTGGATGCTGCTTGGGAGAAGCGGGCACTTGCTCCTGGCACTGATCCCAGCTGAGTTTCTCCTGTTGATTTCTGGACCACTGATGCTGTTGCTGAGGAGGTATTTCCCGGCATCCCTCCCCCTGAGACACCGGCTAAGGACCAGCCTAAACGCAAGGTAACCTTCACCTCTTTCCCATGGGATTTTCCCCAGCTGGGATATCTCTGCTTTCTCCTGGAACTAGGTCCTCCAGCTGGCAACATATCTCTCTCTCTCTCTCTCTCTCTCTCTCTCTCTCTCTGTGTGTGTGTGTGTGTGTTGGGGGAGAAGAGGAGACTGTTTTAGGTATTGCTCTGTCCTAGGGCTTCCCCGATACCTGCTGAATCCAATGCAAAGTGGCCTTTCCCCTGGCTCTGGAGACATTTCCGAGGCAGGCACCTGTCATTTGCCACCCCCGTCCTCCTCCTCGAGCTCCCTTTCTCCCCCTCCCCCAGCCCATTATTCTGCTTCAGCCTTTTGTGTCAGTGGCAGAGGGCTGAAGGGATGTCTTTGCCCTTCTGGCAGGCAGGACAGTGTCAGGATGGACCGCGCTGCCAGAAGCCGACGCTAGCGAGGGAGGTGTGAA
# B2: G88P7: 896-bp derivative of the G88P2 promoter, SEQ ID NO: 61 (nucleic acid, listed as Homo sapiens)
# DNA: ATGCCAAGCGTGGAAAGGCTGTCTTTTCCCTGGATGATGTATAACTAAGCAGGAGAGAGCTTCGAGTGGGTTCACCACATCAGCCACCACTCCTGCTTCTGAGCACAGGGTGCTCTCCTCTTGAGCTCAGCTTCTGCTTTTGCAGCCAAGCATTCTTGCTGCTGCTGCCTGCCTGCCCACCCGCCTGGGCTTGCAGCCCGCCACTTTACTTTCTCCAGCCCTGATACCAGCTGAGAAGTCTCCCTGCAGCTGCTAGTTCCTGCCCAGGACCATGTGTGTGGATGCTGCTTGGGAGAAGCGGGCACTTGCTCCTGGCACTGATCCCAGCTGAGTTTCTCCTGTTGATTTCTGGACCACTGATGCTGTTGCTGAGGAGGTATTTCCCGGCATCCCTCCCCCTGAGACACCGGCTAAGGACCAGCCTAAACGCAAGGTAACCTTCACCTCTTTCCCATGGGATTTTCCCCAGCTGGGATATCTCTGCTTTCTCCTGGAACTAGGTCCTCCAGCTGGCAACATATCTCTCTCTCTCTCTCTCTCTCTCTCTCTCTCTCTCTCTCTGTGTGTGTGTGTGTGTGTTGGGGGAGAAGAGGAGACTGTTTTAGGTATTGCTCTGTCCTAGGGCTTCCCCGATACCTGCTGAATCCAATGCAAAGTGGCCTTTCCCCTGGCTCTGGAGACATTTCCGAGGCAGGCACCTGTCATCTGCCACCCCCGTCCTCCTCCTCGAGCTCCCTTTCTCCCCCTCCCCCAGCCCATTATTCTGCTTCAGCCTTTTGTGTCAGTGGCAGAGGGCTGAAGGGATGTCTTTGCCCTTCTGGCAGGCAGGACAGTGTCAGGATGGACCGCGCTGCCAGAAGCCGACGCTAGCGAGGGAGGTGTGAAGAGTTGGCCAG
# Legend:
# [1] = system: MSNs in the striatum (STR); experiment: Promoter activity driving EYFP reporter expression after AAV injection into the SNr: striatum; type: in vivo, mice; conditions: for labeled MSNs, reporter expression driven by promoter (FIG. 4B): mean±SEM, n=3 mice, AAV8R12 capsid; for Activity Level STR: numbers of YFP-expressing neurons per animal
# From the text: (§1) Brain profiles of two epigenetic marks for enhancers and promoters, monomethylation of histone H3 lysine 4 (H3K4me1) and acetylation of histone H3 lysine 27 (H3K27ac) were checked and approximately 2 kilobase-long sequences around the transcriptional start site (TSS) that have high levels of H3K4me1 and/or H3K27ac were identified in mouse brain. Homologous sequences at equivalent positions of the human genome were then cloned onto an AAV backbone, and the activity of the homologous sequences in directing reporter expression was tested in mice after injections of AAVs into the SNr (FIG. 3A-C, TABLE 3).
# G88P2 (2259 bp) was cloned with the following primers: 5′-[…] (SEQ ID NO.: 36) and 3-[…] (SEQ ID NO.: 37). To increase the payload of AAV genome, the G88P2 promoter was shorted using restriction enzymes, and two derivatives, G88P3 and G88P7, were made which were 1395-bp and 896-bp long, respectively (FIG. 3A-3C). Comparative efficiency in labeling MSNs for the two shortened promoters was observed. For mice that received viral injections into the SNr, viruses expressing EYFP driven by G88P3 and G88P7 promoters labeled 3.7±0.66×104 and 3.95±0.73×104 MSNs per mouse, respectively, compared to 1.61±0.16×104 labeled MSNs by hSyn promoter (FIG. 4B).
# (§2) Region-selective promoter identification was based on the Allen Brain Atlas in situ hybridization (ISH) data (mouse.brain-map.org/). Genes highly expressed in the striatum but not in other parts of the basal ganglia were first selected as candidates. H3K4me1 and H3K27ac are known epigenetic marks for active promoters and enhancers. Thus, we identified regions with high levels of these two chromatin modification marks in mouse brain as candidate regions based on the ENCODE annotation data on the UCSC Genome Browser (genome.ucsc.edu/). To further extend the promoters' potential application in primates, the sequences of interest were PCR-amplified from human genomic DNA. Based on the above strategies, GPR88 was selected as a candidate gene. The nucleotide sequence upstream of the start codon with high H3K4me1 and H3K27ac levels was selected as the candidate promoter sequence. G88P2 (2259 bp) was cloned with the following primers: 5′-[…]-3′ (SEQ ID NO: 36), 5′-[…]-3′ (SEQ ID NO: 58). G88P3 (1395 bp) and G88P7 (896 bp) were further shortened by subcloning.
# Promoters were subcloned into a pAAV-hSyn-EYFP vector derived from pAAV-hSyn-EGFP (Addgene, 50465) to replace the hSyn promoter by using appropriate restriction enzyme combinations. To generate pAAV-G88P7-DIO-tdTomato, a DIO-tdTomato cassette was subcloned into pAAV-G88P7-EYFP to replace EYFP by restriction enzyme digestion. To generate pAAV-G88P3-HA-hM3Dq, promoter G88P3 was subcloned into pAAV-hSyn-HA-hM3Dq-IRES-mCitrine (Addgene, 50463) via the EcoRI/BamHI restriction sites to replace the hSyn promoter and IRES-mCitrine was removed afterwards by restriction enzyme digestion. To generate pAAV-G88P3-HA-hM3Dq-2A-EYFP, a 2A-EYFP fragment was subcloned into pAAV-G88P3-HA-hM3Dq after hM3Dq. […]
# Images were acquired using a confocal microscope (Carl Zeiss, LSM880) and an Axiolmager.Z1 microscope with apotome (Carl Zeiss). […] Every sixth section was analyzed, and numbers of EYFP+ cells were multiplied by six to acquire the approximate total number and mean number of cells per animal. […]
# [2] = system: substantia nigra (SN); experiment: Promoter activity driving EYFP reporter expression after AAV injection into the SNr: substantia nigra; type: in vivo, mice; conditions: numbers of YFP-expressing neurons per animal
# From the text: as §1
# as §2, with “subcloning. […]” for “subcloning.”
# Images were acquired using a confocal microscope (Carl Zeiss, LSM880) and an Axiolmager.Z1 microscope with apotome (Carl Zeiss). […] Every sixth section was analyzed, and numbers of EYFP+ cells were multiplied by six to acquire the approximate total number and mean number of cells per animal. Images were processed using ImageJ (NIH, USA), and final quantifications were independently performed manually by two blinded experimenters.
Molecule,"labeled MSNs, reporter expression driven by promoter (FIG. 4B) [1]",Activity Level STR [1],Activity Level SN [2]
B1,37026±6646,++++ (>25 k),+ (<5 k)
B2,39460±7281,++++ (>25 k),+ (<5 k)
